Changes are numbered by the printed parent chain.
B1: lysine-substituted single-chain antibody "OK" containing VH0K and VL0K (all lysine residues replaced) (scFv)
scFv: QVQLVQSGAEVAEPGASVQVSCAASGYTFTSYWMHWVRQAPGQGLEWMGNIYPGSGGTNYAEEFQNRVTMTRDTSISTAYMELSRLRSDDTAVYYCARSGGPYFFDYWGQGTLVTVSSGGGGSGGGGSGGGGSDIVMTQSPLSLPVTPGEPASISCRSSQNIVHNNGITYLEWYLQRPGQSPQLLIYQVSDRFSGVPDRFSGSGSGTDFTLTISRVEAEDVGVYYCFQGSHIPPTFGQGTEVEIERHHHHHH
notes: Expressed in E. coli; also called VH0K VL0K
B2: lysine-substituted single-chain antibody "HK" containing VH1K and VL0K (H19 re-replaced with lysine) (scFv)
scFv: B1 scFv with Q19K
notes: Expressed in E. coli; also called VH1K VL0K
B3: lysine-substituted single-chain antibody "LK" containing VH0K and VL1K (L108 re-replaced with lysine) (scFv)
scFv: B1 scFv with E241K
notes: Expressed in E. coli; also called VH0K VL1K
B4: h528scFv, single-chain antibody of the humanized anti-human EGF receptor 1 (Her1) antibody 528 before lysine substitution (scFv)
scFv: QVQLVQSGAEVKKPGASVKVSCKASGYTFTSYWMHWVRQAPGQGLEWMGNIYPGSGGTNYAEKFKNRVTMTRDTSISTAYMELSRLRSDDTAVYYCARSGGPYFFDYWGQGTLVTVSSAGGGGSDIVMTQSPLSLPVTPGEPASISCRSSQNIVHNNGITYLEWYLQKPGQSPQLLIYKVSDRFSGVPDRFSGSGSGTDFTLKISRVEAEDVGVYYCFQGSHIPPTFGQGTKVEIKRAAAAEQKLISEEDLNLGGGMRGSHHHHHH
notes: also called PC

target: human EGF receptor 1 (EGFR) as used in the SPR rate analysis (UniProt P00533 25-645, limits assumed); assay: SPR rate analysis of scFv

B1 and B2 are within 1.5-fold of each other in Ka: 7.32e+06 M⁻¹ for the first, 8.82e+06 M⁻¹ for the second.

Compared with B3, B4 is 3.1-fold higher in Ka: 8.34e+06 M⁻¹ for the first, 2.61e+07 M⁻¹ for the second.

B1 and B2 are within 1.5-fold of each other in koff: 0.00824 s⁻¹ for the first, 0.00805 s⁻¹ for the second.

Compared with B3, B4 is 1.6-fold lower in koff: 0.00853 s⁻¹ for the first, 0.00542 s⁻¹ for the second.

B1 and B2 are within 1.5-fold of each other in kon: 60300 M⁻¹ s⁻¹ for the first, 71000 M⁻¹ s⁻¹ for the second.

Compared with B3, B4 is 2-fold higher in kon: 71100 M⁻¹ s⁻¹ for the first, 141000 M⁻¹ s⁻¹ for the second.

Source: patent US20150322156A1 (TOHOKU UNIVERSITY, published 2015)
